Reference: IntAct's records for PubMed 16775625

B1: Cyclin-dependent kinase 14 (Homo sapiens), O94921 (parent)
chain: MCDLIEPQPAEKIGKMKKLRRTLSESFSRIALKKDDTTFDEICVTKMSTRNCQGMDSVIKPLDTIPEDKKVRVQRTQSTFDPFEKPANQVKRVHSENNACINFKTSSTGKESPKVRRHSSPSSPTSPKFGKADSYEKLEKLGEGSYATVYKGKSKVNGKLVALKVIRLQEEEGTPFTAIREASLLKGLKHANIVLLHDIIHTKETLTLVFEYVHTDLCQYMDKHPGGLHPDNVKLFLFQLLRGLSYIHQRYILHRDLKPQNLLISDTGELKLADFGLARAKSVPSHTYSNEVVTLWYRPPDVLLGSTEYSTCLDMWGVGCIFVEMIQGVAAFPGMKDIQDQLERIFLVLGTPNEDTWPGVHSLPHFKPERFTLYSSKNLRQAWNKLSYVNHAEDLASKLLQCSPKNRLSAQAALSHEYFSDLPPRLWELTDMSSIFTVPNVRLQPEAGESMRAFGKNNSYGKSLSNSKH
B2: Cyclin-dependent kinase 14 (Homo sapiens), O94921 (parent)
chain: B1 chain
partner: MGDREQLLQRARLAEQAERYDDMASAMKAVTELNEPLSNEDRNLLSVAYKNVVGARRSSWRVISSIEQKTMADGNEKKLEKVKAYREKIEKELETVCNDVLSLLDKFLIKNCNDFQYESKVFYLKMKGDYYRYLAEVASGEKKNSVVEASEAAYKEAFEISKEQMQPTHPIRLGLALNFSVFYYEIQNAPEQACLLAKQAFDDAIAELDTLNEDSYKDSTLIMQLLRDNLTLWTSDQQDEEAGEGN
B3: Cyclin-dependent kinase 14 (Homo sapiens), O94921 (parent)
chain: B1 chain
partner: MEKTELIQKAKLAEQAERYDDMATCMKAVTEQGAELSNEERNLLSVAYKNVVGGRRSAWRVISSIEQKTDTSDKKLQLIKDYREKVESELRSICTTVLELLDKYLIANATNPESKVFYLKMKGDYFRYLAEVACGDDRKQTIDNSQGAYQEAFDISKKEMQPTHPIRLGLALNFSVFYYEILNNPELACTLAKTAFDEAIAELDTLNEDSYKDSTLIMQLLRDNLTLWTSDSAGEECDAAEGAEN

Variants of: B1
Settings: with 1433b_human YWHAB

effect of a mutation on the interaction | Variant
decreasing interaction | MCDLIEPQPAEKIGKMKKLRRTLSESFSRIALKKDDTTFDEICVTKMSTRNCQGMDSVIKPLDTIPEDKKVRVQRTQSTFDPFEKPANQVKRVHSENNACINFKTSSTGKESPKVRRHASPSSPTSPKFGKADSYEKLEKLGEGSYATVYKGKSKVNGKLVALKVIRLQEEEGTPFTAIREASLLKGLKHANIVLLHDIIHTKETLTLVFEYVHTDLCQYMDKHPGGLHPDNVKLFLFQLLRGLSYIHQRYILHRDLKPQNLLISDTGELKLADFGLARAKSVPSHTYSNEVVTLWYRPPDVLLGSTEYSTCLDMWGVGCIFVEMIQGVAAFPGMKDIQDQLERIFLVLGTPNEDTWPGVHSLPHFKPERFTLYSSKNLRQAWNKLSYVNHAEDLASKLLQCSPKNRLSAQAALSHEYFSDLPPRLWELTDMSSIFTVPNVRLQPEAGESMRAFGKNNSYGKSLSNSKH [S119A]

Variants of: B1
Settings: with 1433e_human YWHAE

effect of a mutation on the interaction | Variant
decreasing interaction | MCDLIEPQPAEKIGKMKKLRRTLSESFSRIALKKDDTTFDEICVTKMSTRNCQGMDSVIKPLDTIPEDKKVRVQRTQSTFDPFEKPANQVKRVHSENNACINFKTSSTGKESPKVRRHASPSSPTSPKFGKADSYEKLEKLGEGSYATVYKGKSKVNGKLVALKVIRLQEEEGTPFTAIREASLLKGLKHANIVLLHDIIHTKETLTLVFEYVHTDLCQYMDKHPGGLHPDNVKLFLFQLLRGLSYIHQRYILHRDLKPQNLLISDTGELKLADFGLARAKSVPSHTYSNEVVTLWYRPPDVLLGSTEYSTCLDMWGVGCIFVEMIQGVAAFPGMKDIQDQLERIFLVLGTPNEDTWPGVHSLPHFKPERFTLYSSKNLRQAWNKLSYVNHAEDLASKLLQCSPKNRLSAQAALSHEYFSDLPPRLWELTDMSSIFTVPNVRLQPEAGESMRAFGKNNSYGKSLSNSKH [S119A]

Variants of: B2
Settings: with 1433f_human YWHAH

effect of a mutation on the interaction | Variant
decreasing interaction | MCDLIEPQPAEKIGKMKKLRRTLSESFSRIALKKDDTTFDEICVTKMSTRNCQGMDSVIKPLDTIPEDKKVRVQRTQSTFDPFEKPANQVKRVHSENNACINFKTSSTGKESPKVRRHASPSSPTSPKFGKADSYEKLEKLGEGSYATVYKGKSKVNGKLVALKVIRLQEEEGTPFTAIREASLLKGLKHANIVLLHDIIHTKETLTLVFEYVHTDLCQYMDKHPGGLHPDNVKLFLFQLLRGLSYIHQRYILHRDLKPQNLLISDTGELKLADFGLARAKSVPSHTYSNEVVTLWYRPPDVLLGSTEYSTCLDMWGVGCIFVEMIQGVAAFPGMKDIQDQLERIFLVLGTPNEDTWPGVHSLPHFKPERFTLYSSKNLRQAWNKLSYVNHAEDLASKLLQCSPKNRLSAQAALSHEYFSDLPPRLWELTDMSSIFTVPNVRLQPEAGESMRAFGKNNSYGKSLSNSKH [S119A]

Variants of: B3
Settings: with 1433t_human YWHAQ

effect of a mutation on the interaction | Variant
decreasing interaction | MCDLIEPQPAEKIGKMKKLRRTLSESFSRIALKKDDTTFDEICVTKMSTRNCQGMDSVIKPLDTIPEDKKVRVQRTQSTFDPFEKPANQVKRVHSENNACINFKTSSTGKESPKVRRHASPSSPTSPKFGKADSYEKLEKLGEGSYATVYKGKSKVNGKLVALKVIRLQEEEGTPFTAIREASLLKGLKHANIVLLHDIIHTKETLTLVFEYVHTDLCQYMDKHPGGLHPDNVKLFLFQLLRGLSYIHQRYILHRDLKPQNLLISDTGELKLADFGLARAKSVPSHTYSNEVVTLWYRPPDVLLGSTEYSTCLDMWGVGCIFVEMIQGVAAFPGMKDIQDQLERIFLVLGTPNEDTWPGVHSLPHFKPERFTLYSSKNLRQAWNKLSYVNHAEDLASKLLQCSPKNRLSAQAALSHEYFSDLPPRLWELTDMSSIFTVPNVRLQPEAGESMRAFGKNNSYGKSLSNSKH [S119A]
